Measured values: patent US20060286092A1

What was measured:
[1] = target: B7-H1 (full-length, expressed on BHK cells transfected with pZMP21 hB7-H1) (human) (UniProt Q9NZQ7); assay: flow cytometry (PE probe vs anti-CD8 APC) on BHK cells transfected with full-length B7-H1; no competitor
[2] = target: B7-H1 (full-length, expressed on BHK cells transfected with pZMP21 hB7-H1) (human) (UniProt Q9NZQ7); assay: flow cytometry on B7-H1-transfected BHK cells; competitor: excess unlabeled BTLA/mFc2 (row printed a second time)
[3] = target: B7-H1 (full-length, expressed on BHK cells transfected with pZMP21 hB7-H1) (human) (UniProt Q9NZQ7); assay: flow cytometry on B7-H1-transfected BHK cells; competitor: excess unlabeled BTLA/mFc2
[4] = target: B7-H1 (full-length, expressed on BHK cells transfected with pZMP21 hB7-H1) (human) (UniProt Q9NZQ7); assay: flow cytometry on B7-H1-transfected BHK cells; competitor: excess unlabeled NKp30/mFc2

Chain of UniProt Q9NZQ7 (Q9NZQ7 19-290): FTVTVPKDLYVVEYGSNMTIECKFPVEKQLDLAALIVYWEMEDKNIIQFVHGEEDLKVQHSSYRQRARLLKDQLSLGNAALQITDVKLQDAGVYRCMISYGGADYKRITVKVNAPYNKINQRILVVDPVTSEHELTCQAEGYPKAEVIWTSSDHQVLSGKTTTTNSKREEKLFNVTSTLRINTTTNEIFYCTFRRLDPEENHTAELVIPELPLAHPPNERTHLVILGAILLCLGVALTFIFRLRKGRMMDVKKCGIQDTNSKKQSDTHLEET

**Q.** With BTLA/mFc2 (Fc fusion) as the substance, how does the % double positive [1] read?
**A.** The % double positive was 1.96%.

**Q.** What does the source list for PD-1/Fc (Fc fusion)?
**A.** % double positive [2]: 28.8%; % double positive [1]: 33.7%; % double positive [3]: 28.8%; % double positive [4]: 31.4%

**Q.** Which % double positive [1] does the source give for Zenon control here?
**A.** The % double positive was 1.91%.
